Data from the supplement of paper PMC9876800.

Tested on: peptide library, one residue held at a place counted from the S/T acceptor
Assay: relative phosphorylation of the sub-library (ratio to the mean residue at this position); higher = residue favoured
Summary of the method: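 Relative sub-library phosphorylation is a ratio to the mean residue at the same position. Purified recombinant kinases were incubated under kinase-specific conditions with biotinylated degenerate peptide sub-libraries, each fixing one residue at one position around a central Ser/Thr, using 50 μM peptide and 50 μM ATP spiked with γ-32P-ATP for 90 min. Spots captured on streptavidin membranes were phosphorimaged and quantified by densitometry.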

CDK7, construct: Full length, human, sequence (P50613 whole entry, looked up): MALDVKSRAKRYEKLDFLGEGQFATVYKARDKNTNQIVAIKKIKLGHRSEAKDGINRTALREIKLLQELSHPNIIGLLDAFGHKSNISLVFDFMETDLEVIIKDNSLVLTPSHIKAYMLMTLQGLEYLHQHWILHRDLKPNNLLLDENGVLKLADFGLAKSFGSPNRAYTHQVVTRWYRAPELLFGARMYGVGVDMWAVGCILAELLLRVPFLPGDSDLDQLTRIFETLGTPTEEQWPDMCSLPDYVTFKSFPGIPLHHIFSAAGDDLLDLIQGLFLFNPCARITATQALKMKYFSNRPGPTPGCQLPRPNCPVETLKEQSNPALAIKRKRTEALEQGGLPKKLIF
NEK9, construct: Full length (D347-732), human, sequence (Q8TD19 whole entry, looked up): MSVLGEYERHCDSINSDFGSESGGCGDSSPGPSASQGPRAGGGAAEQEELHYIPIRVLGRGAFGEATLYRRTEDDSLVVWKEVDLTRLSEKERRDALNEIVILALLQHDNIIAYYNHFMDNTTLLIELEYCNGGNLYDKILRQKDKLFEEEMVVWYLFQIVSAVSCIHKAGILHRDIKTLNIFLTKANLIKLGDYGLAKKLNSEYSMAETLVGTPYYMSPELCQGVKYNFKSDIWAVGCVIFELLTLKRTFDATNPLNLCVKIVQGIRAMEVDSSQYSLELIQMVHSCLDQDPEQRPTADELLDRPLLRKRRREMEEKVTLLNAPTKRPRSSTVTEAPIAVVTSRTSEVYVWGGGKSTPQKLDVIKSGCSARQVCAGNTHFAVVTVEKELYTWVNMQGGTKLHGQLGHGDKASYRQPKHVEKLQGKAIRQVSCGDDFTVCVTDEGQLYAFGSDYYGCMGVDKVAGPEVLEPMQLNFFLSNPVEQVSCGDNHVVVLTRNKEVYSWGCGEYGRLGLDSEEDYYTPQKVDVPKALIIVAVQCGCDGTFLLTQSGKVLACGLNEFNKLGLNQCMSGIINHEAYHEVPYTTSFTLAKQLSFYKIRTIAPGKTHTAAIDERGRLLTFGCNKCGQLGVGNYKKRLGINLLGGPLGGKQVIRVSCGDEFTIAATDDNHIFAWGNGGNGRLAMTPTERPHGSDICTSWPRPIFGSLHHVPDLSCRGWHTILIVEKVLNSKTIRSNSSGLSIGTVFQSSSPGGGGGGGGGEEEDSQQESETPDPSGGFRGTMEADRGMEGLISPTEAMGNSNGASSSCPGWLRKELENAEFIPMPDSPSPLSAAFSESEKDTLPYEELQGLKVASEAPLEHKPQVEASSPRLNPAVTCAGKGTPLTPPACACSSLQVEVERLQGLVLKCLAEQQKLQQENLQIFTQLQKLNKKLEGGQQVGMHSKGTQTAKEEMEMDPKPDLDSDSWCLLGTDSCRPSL

CDK7, construct: Full length, human (from UniProt P50613)
relative phosphorylation
Settings	at +1	at +2	at +3	at +4	at -1	at -2	at -3	at -4	at -5
A fixed	0.369	1.2	1.11	0.982	0.638	1.14	1.06	1.05	1.12
D fixed	0.303	0.747	0.502	0.558	0.367	0.385	0.671	0.621	0.658
E fixed	0.274	0.589	0.433	0.506	0.276	0.408	0.598	0.586	0.518
F fixed	0.271	0.709	1.05	1	0.977	0.484	0.676	0.812	1.01
G fixed	0.981	1.34	1.04	1.22	0.999	0.965	1.44	1.24	1.12
H fixed	0.317	1.06	1.02	1.24	0.9	0.586	0.936	1.16	1.36
I fixed	0.339	0.81	0.854	0.956	0.385	1.28	0.647	0.734	0.728
K fixed	0.288	1.13	0.904	0.814	1.27	0.802	1.26	1.25	1.3
L fixed	0.33	0.774	1.05	0.932	1.04	1.18	0.608	0.81	0.863
M fixed	0.333	0.871	1.02	1.04	1.09	0.978	0.793	0.975	0.878
N fixed	0.449	1.13	0.826	0.937	0.602	0.818	0.949	1.11	0.986
P fixed	11.1	1.57	1.34	1.18	1.02	3.51	2	1.37	1.07
Q fixed	0.354	1.04	0.831	1.07	0.919	0.781	1.06	1.03	0.845
R fixed	0.294	1.36	0.624	0.727	1.56	1.14	1.87	1.31	1.22
V fixed	0.417	0.9	1.04	0.878	0.62	1.3	0.842	0.681	0.693
W fixed	0.304	0.802	1.32	1.47	3.04	0.639	0.774	1.16	1.49
Y fixed	0.283	0.982	2.04	1.48	1.29	0.605	0.825	1.1	1.14
pThr fixed	0.469	0.566	0.573	0.503	0.352	0.645	0.713	0.697	0.612
pTyr fixed	0.357	0.583	0.641	0.713	0.475	0.37	0.568	0.63	0.522

NEK9, construct: Full length (D347-732), human (from UniProt Q8TD19)
relative phosphorylation
Settings	at +1	at +2	at +3	at +4	at -1	at -2	at -3	at -4	at -5
A fixed	0.751	1.08	1.02	1.03	1	1.33	1.05	1.11	1.19
D fixed	0.268	0.44	0.594	0.754	0.889	1.27	0.574	1.06	1.04
E fixed	0.256	0.294	0.552	0.851	0.854	0.851	0.564	0.889	0.918
F fixed	1.37	0.606	1.04	0.775	0.843	1	1.43	0.9	1.07
G fixed	0.844	1.04	1.22	1.43	0.819	1.28	1.22	1.3	1.3
H fixed	0.912	1.42	1.14	1.18	1.21	1.08	0.953	1.09	1.02
I fixed	1.49	0.842	0.95	0.744	0.759	0.584	0.488	0.78	0.755
K fixed	0.951	1.69	1.12	1.25	1.12	0.543	0.73	1.01	1.01
L fixed	1.27	0.611	1.01	0.839	1.28	1.21	1.7	0.96	0.824
M fixed	1.54	0.782	0.956	0.899	1.39	1.53	2.32	1.12	0.953
N fixed	0.749	1.19	0.97	1.06	1.3	1.59	0.944	0.928	1.04
P fixed	0.209	0.57	0.921	1.12	0.426	0.667	0.937	1.12	0.991
Q fixed	1.14	0.892	0.943	1.01	1.12	0.996	0.808	0.85	0.764
R fixed	1.42	2.78	1.2	1.38	1.24	0.591	0.748	0.879	1.06
V fixed	1.3	0.894	0.887	0.696	0.688	0.461	0.407	0.688	0.895
W fixed	1.14	0.755	1.23	1.13	0.941	1.02	1.14	1.36	1.22
Y fixed	1.39	1.12	1.24	0.855	1.12	0.996	1	0.963	0.936
pThr fixed	0.614	0.45	0.557	0.85	0.364	0.573	0.816	0.901	0.836
pTyr fixed	0.517	0.399	0.599	0.722	1.01	0.91	0.826	0.787	0.886
